# Assay results from publication PMC11355449, “The Discovery and Characterization of a Potent DPP-IV Inhibitory Peptide from Oysters for the Treatment of Type 2 Diabetes Based on Computational and Experimental Studies” (Marine Drugs, 2024).
# Read-outs that look alike come from different tables or passages of the source. No end group written: not given here.
# Columns and labels:
# DPP-IV [1] = target: T1, DPP-IV (Homo sapiens, UniProt P27487); settings: read-out: IC50, DPP-IV inhibition, cited from earlier work
# T1 construct: purchased Cayman Chemical 700210
# T1 sequence (P27487 whole entry): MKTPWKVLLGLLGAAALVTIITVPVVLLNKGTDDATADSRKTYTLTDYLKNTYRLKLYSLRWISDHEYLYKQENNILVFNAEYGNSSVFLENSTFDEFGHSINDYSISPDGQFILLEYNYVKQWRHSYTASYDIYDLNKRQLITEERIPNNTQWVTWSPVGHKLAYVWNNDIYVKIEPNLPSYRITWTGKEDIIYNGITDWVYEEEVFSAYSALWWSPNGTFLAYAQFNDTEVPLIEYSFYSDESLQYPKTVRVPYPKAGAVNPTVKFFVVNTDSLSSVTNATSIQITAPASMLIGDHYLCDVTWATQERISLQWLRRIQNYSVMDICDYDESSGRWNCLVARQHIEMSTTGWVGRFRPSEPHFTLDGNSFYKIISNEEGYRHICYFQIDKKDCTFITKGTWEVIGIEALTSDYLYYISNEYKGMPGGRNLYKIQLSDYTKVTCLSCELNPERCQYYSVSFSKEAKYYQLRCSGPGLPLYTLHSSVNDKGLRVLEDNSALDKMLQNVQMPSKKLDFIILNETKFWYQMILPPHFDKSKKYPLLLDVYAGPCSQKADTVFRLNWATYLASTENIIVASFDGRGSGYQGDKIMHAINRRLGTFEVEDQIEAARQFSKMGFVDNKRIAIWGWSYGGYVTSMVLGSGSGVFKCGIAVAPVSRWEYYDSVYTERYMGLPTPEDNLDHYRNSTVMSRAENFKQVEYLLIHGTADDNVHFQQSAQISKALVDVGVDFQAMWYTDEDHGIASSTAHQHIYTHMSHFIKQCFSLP
# DPP-IV [2] = target: T1, DPP-IV; test: DPP-IV inhibitory activity in vitro (Cayman DPP (IV) inhibitor screening assay kit); type: biochemical; settings: substrate Gly-Pro-AMC, 37 °C, 30 min, fluorescence 355/460 nm; dose–response range from 0.52 to 3.65 μM; drc package in R; read-out: IC50, DPP-IV inhibition
# Method: Based on the results of the virtual screening, the optimal oyster peptide (key peptide sequences with potent DPP-IV inhibition) was selected and synthesized by Wuxi Maimertop Biotechnology Co., Ltd. (Wuxi, China). Then, the synthesized peptide was subjected to the DPP-IV inhibition activity verification. The DPP-IV inhibitory activity was determined following the instructions of commercial kits: a DPP (IV) inhibitor screening assay kit (700210 Cayman chemicals, USA). Briefly, 30 µL of assay buffer, 10 µL of DPP-IV enzyme, and 10 µL of peptide solution were added to a 96-well plate. Then, 50 µL of substrate (Gly-Pro-AMC, Sigma-Aldrich, Saint Louis, MO, USA) was added to start the reaction. After incubation at 37 °C for 30 min, the absorbance of the reaction mixture was detected under excitation and emission wavelengths of 355 nm and 460 nm, respectively. The DPP-IV inhibitory activity was calculated using the following formula:(1) DPP-IV Inhibition (%)=A− B/A×100% where A was the average fluorescence of 100% initial activity (blank) and B was the fluorescence of the sample.
# The 50% inhibitory concentration (IC50) of DPP-IV enzyme activity was calculated using the drc package (https://cran.r-project.org/web/packages/drc/ accessed on 20 July 2024) in R 4.1.2.
# [3] = food-derived peptides from silver carp proteins
# [4] = food-derived peptides from Sorghum bicolor
# [5] = food-derived peptides from sheep
substance,measurement,setting,value
APGPAG [food-derived peptide from silver carp proteins],IC50,DPP-IV [1]; [3],229 µM
LPIIDI [food-derived peptide from silver carp proteins],IC50,DPP-IV [1]; [3],105 µM
LRGFGNPPT,IC50,DPP-IV [2],1.56 µM
LSICGEESFGTGSDHIR [food-derived peptide from Sorghum bicolor],IC50,DPP-IV [1]; [4],73.5 µM
MQEHFTCCR [food-derived peptide from sheep],IC50,DPP-IV [1]; [5],215 µM
QLRDIVDK [food-derived peptide from Sorghum bicolor],IC50,DPP-IV [1]; [4],8.55 µM
RLYLHENK [food-derived peptide from sheep],IC50,DPP-IV [1]; [5],166 µM
SLGESLLQEDVEAHK [food-derived peptide from Sorghum bicolor],IC50,DPP-IV [1]; [4],82.5 µM
